Experimental data as given in publication PMC6872149, “Protein:Protein interactions in the cytoplasmic membrane apparently influencing sugar transport and phosphorylation activities of the e. coli phosphotransferase system” (PLoS ONE, 2019).

Target: MtlA (mannitol PTS Enzyme IIC-IIB-IIA) fused to the T25 domain (pKNT25-mtlA) (E. coli, UniProt P00550 1-637)
Assay: cell-based or functional assay

Sequence of MtlA (mannitol PTS Enzyme IIC-IIB-IIA) fused to the T25 domain (pKNT25-mtlA) (P00550 whole entry, the tested form may be a part): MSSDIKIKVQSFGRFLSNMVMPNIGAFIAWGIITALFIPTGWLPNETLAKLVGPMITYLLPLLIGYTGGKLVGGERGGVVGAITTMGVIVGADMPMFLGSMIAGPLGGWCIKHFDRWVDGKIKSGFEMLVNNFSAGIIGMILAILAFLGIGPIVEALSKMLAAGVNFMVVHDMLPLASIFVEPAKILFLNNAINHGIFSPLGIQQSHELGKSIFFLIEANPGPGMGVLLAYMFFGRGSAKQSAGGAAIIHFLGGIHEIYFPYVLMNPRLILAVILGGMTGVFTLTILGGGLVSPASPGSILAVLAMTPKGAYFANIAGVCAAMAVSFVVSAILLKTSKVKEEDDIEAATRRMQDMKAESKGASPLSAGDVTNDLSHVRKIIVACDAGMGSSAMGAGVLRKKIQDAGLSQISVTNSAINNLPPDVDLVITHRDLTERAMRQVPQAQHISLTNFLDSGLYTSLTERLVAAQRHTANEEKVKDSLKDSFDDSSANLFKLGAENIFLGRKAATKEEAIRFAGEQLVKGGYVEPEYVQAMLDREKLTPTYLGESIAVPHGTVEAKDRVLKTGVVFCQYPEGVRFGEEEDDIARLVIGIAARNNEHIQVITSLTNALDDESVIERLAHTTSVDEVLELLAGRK

B1: FruB (fructose PTS IIA-FPr) fused to the T18 domain (pUT18-fruB) (natural protein, E. coli, UniProt P69811 1-376, looked up)
chain: MFQLSVQDIHPGEKAGDKEEAIRQVAAALVQAGNVAEGYVNGMLAREQQTSTFLGNGIAIPHGTTDTRDQVLKTGVQVFQFPEGVTWGDGQVAYVAIGIAASSDEHLGLLRQLTHVLSDDSVAEQLKSATTAEELRALLMGEKQSEQLKLDNEMLTLDIVASDLLTLQALNAARLKEAGAVDATFVTKAINEQPLNLGQGIWLSDSAEGNLRSAIAVSRAANAFDVDGETAAMLVSVAMNDDQPIAVLKRLADLLLDNKADRLLKADAATLLALLTSDDAPTDDVLSAEFVVRNEHGLHARPGTMLVNTIKQFNSDITVTNLDGTGKPANGRSLMKVVALGVKKGHRLRFTAQGADAEQALKAIGDAIAAGLGEGA
- PEP-dependent [14C]mannitol phosphorylation in vitro, activity ratio (Enzyme II plus FruB / Enzyme II alone); purified His-FruB 0.23 μM added to crude extract Cr.Ext-ΔfruBKA-pMAL (no FruA): 1.2 ratio
- PEP-dependent [14C]mannitol phosphorylation in vitro, activity ratio (Enzyme II plus FruB / Enzyme II alone); purified His-FruB 0.23 μM added to membrane pellets MP-WT-pMAL (no fruA overexpression): 1.5 ratio
- PEP-dependent [14C]mannitol phosphorylation in vitro, activity ratio (Enzyme II plus FruB / Enzyme II alone); purified His-FruB 0.23 μM added to membrane pellets MP-WT-pMAL-fruA (fruA overexpressed): 8.6 ratio
- PEP-dependent [14C]mannitol phosphorylation in vitro, activity ratio (Enzyme II plus FruB / Enzyme II alone); purified His-FruB 0.23 μM added to membrane pellets MP-ΔfruBKA-pMAL (no FruA): 1.2 ratio
